Assays:
[1] = ceramide release promotion activity from membrane; format: biochemical; conditions: 14C-ceramide in phosphatidylcholine/phosphatidylethanolamine membrane, 37° C. 30 minutes, 14C in supernatant; FIGS. 14, 16
Protocol: Hereinafter, the standard method will be described in detail, however, even if the described conditions are changed, a method of detecting ceramide release promotion activity having means for separating releasing ceramide by a centrifugation principally belongs to the present invention. The lipid membrane containing ceramide was prepared so that it contains 12.5 nCi (225 pmol) per sample of [palmitoyl-1-^14C]N-palmitoyl-D-ethyro-sphigosine (hereinafter, may be referred to as ^14C-ceramide) on the basis of the mixed lipid consisting of phosphatidylcholine and phosphatidylethanolamine derived from egg yolk at the ratio of 4:1 and its concentration becomes 2.5 mg/mL. This lipid membrane is required at the rate of 20 μL per one sample of the activity measurement. […]
hCERT protein or its recombinant protein described above as a protein sample to be targeted (under the standard conditions, the amount of protein corresponding to 450 picomoles, which is 2-fold molar equivalent amount of ceramide contained in the donating membrane was used) were messed up to 30 μL using the buffer 2 [50 mM Hepes-NaOH buffer (pH7.4) to which 100 mM NaCl and 0.5 mM EDTA have been added]. […] The activity for promoting ceramide release with hCERT was calculated by measuring the radioactive activity of ^14C in the supernatant fraction using a liquid scintillation counter. […]

LY-A2 cell = test: sensibility to MCD and lysenin (MTT); format: cell-based, Chinese hamster
Protocol: 100 thousand pieces of cells per each well of a 12-well culture dish were inoculated in 1 mL of F12/NBS culture medium and cultured at 33° C. overnight. After Cells existed on the culture dish was washed twice in 1 mL of serum-free F12 medium, 1 mL of 10 mM MCD/F12 or lysenin (25 ng/mL)/F12 was added. It should be noted that culture medium in which 1 mL of only serum-free F12 has been added was made control. After it has been incubated at 37° C. for one hour, it was washed twice in 1 mL of phosphate buffered saline (PBS). Subsequently, 1 mL of MTT (0.5 mg/mL)/F12 was added and incubated at 37° C. for one hour. The relative amount of the generated reduced form of MTT was measured by a method of reference literature written by Hanada et al (J. Biol. Chem. 273, 33787-33794, 1998).
The relevant gene was expressed in LY-A2 cell by making virus particle derived from retrovirus vector infect it prepared in the foregoing paragraph. Specifically, the relevant gene was expressed in LY-A2 cell by making virus particle derived from pLIB/hCERT. In the case where hCERT was expressed, the purified transformed strain was also separated by a ultradilution method, and this strain was named as LY-A2/hCERT. After it has been cultured for days, the sensitivity to MCD and lysenin was examined by the above-described method. […]

SM synthase = SM synthase activity, C6-NBD-Cer substrate, membrane fractions; format: biochemical, Chinese hamster; conditions: LY-A2/hCERT versus LY-A2 and CHO-K1 cells, FIG. 5
Protocol: The assay of SM synthase activity was carried out using C6—NBD-Cer as a substrate by a method of Hanada et al (Biochim. Biophys. Acta 1086, 151-156, 1991). However, the membrane fractions prepared respectively from CHO-K1 cell, LY-A2 cell and LY-A2/hCERT cell were used as an enzyme source.

B1: hCERT protein: human CERT protein having an amino acid sequence of SEQ ID NO:1 (protein)
chain: MSDNQSWNSSGSEEDPETESGPPVERCGVLSKWTNYIHGWQDRWVVLKNNALSYYKSEDETEYGCRGSICLSKAVITPHDFDECRFDISVNDSVWYLRAQDPDHRQQWIDAIEQHKTESGYGSESSLRRHGSMVSLVSGASGYSATSTSSFKKGHSLREKLAEMETFRDILCRQVDTLQKYFDACADAVSKDELQRDKVVEDDEDDFPTTRSDGDFLHSTNGNKEKLFPHVTPKGINGIDFKGEAITFKATTAGILATLSHCIELMVKREDSWQKRLDKETEKKRRTEEAYKNAMTELKKKSHFGGPDYEEGPNSLINEEEFFDAVEAALDRQDKIEEQSQSEKVRLHWPTSLPSGDAFSSVGTHRFVQKVEEMVQNHMTYSLQDVGGDANWQLVVEEGEMKVYRREVEENGIVLDPLKATHAVKGVTGHEVCNYFWNVDVRNDWETTIENFHVVETLADNAIIIYQTHKRVWPASQRDVLYLSVIRKIPALTENDPETWIVCNFSVDHDSAPLNNRCVRAKINVAMICQTLVSPPEGNQEISRDNILCKITYVANVNPGGWAPASVLRAVAKREYPKFLKRFTSYVQEKTAGKPILF
modifications: HeLa cell
[1]
  activity for promoting ceramide release: detected depending on the amount of hCERT and the length of incubating time
LY-A2 cell; LY-A2 infected with virus particle derived from pLIB/hCERT, FIG. 2
  MCD resistance and lysenin sensitivity: significantly acquired MCD resistance and lysenin sensitivity
LY-A2 cell; purified LY-A2/hCERT cell, FIG. 3(A)
  sensitivity to MCD and lysenin: approximately the same level as the sensitivity seen in the wild type CHO-K1 cell
SM synthase
  activity of the SM synthase: no difference
